From patent US20180155451A1 (published 2018)

T1: FcγRIIb extracellular domain with C-terminal His tag (human, UniProt P31994 43-217)
T1 construct: extracellular domain; Expressed in FreeStyle293 cells; used as analyte in Biacore; also called FcgRIIb; 2b; not shown: C-terminal His tag
T1 sequence (looked up): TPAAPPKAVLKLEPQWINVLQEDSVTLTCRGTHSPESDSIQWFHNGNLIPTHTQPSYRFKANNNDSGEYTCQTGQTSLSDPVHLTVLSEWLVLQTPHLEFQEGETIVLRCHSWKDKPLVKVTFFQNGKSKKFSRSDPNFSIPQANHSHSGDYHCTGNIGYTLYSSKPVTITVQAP

B1: GpH7-B3 variant T335_08L/GpL16-k0 (Ho Ab) (antibody, human IgG1, kappa)
heavy: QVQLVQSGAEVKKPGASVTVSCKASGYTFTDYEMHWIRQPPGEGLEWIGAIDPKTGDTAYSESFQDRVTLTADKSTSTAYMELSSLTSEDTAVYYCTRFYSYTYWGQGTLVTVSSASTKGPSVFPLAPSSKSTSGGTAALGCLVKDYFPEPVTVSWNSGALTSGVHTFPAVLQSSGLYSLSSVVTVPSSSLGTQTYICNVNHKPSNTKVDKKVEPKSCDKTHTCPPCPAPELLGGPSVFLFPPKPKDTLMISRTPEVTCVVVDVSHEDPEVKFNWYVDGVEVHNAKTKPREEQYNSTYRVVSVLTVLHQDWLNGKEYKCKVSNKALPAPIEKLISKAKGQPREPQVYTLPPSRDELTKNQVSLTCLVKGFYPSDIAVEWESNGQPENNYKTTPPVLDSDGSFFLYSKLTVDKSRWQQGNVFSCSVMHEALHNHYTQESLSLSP
light: DIVMTQSPLSLPVTPGEPASISCQASESLVHSNRNTYLHWYLQKPGQSPQLLIYKVSNRFSGVPDRFSGSGSGTDFTLKISRVEAEDVGVYYCSQNTHVPPTFGQGTKVEIERTVAAPSVFIFPPSDEQLKSGTASVVCLLNNFYPREAKVQWKVDNALQSGNSQESVTEQDSKDSTYSLSSTLTLSKADYEKHKVYACEVTHQGLSSPVTKSFNRGEC
notes: Substitution in both H chains; position in EU numbering; also called T335L homodimerized antibody
B2: GpH7-B3 variant T335_09D/GpL16-k0 (Ho Ab) (antibody, human IgG1, kappa)
heavy: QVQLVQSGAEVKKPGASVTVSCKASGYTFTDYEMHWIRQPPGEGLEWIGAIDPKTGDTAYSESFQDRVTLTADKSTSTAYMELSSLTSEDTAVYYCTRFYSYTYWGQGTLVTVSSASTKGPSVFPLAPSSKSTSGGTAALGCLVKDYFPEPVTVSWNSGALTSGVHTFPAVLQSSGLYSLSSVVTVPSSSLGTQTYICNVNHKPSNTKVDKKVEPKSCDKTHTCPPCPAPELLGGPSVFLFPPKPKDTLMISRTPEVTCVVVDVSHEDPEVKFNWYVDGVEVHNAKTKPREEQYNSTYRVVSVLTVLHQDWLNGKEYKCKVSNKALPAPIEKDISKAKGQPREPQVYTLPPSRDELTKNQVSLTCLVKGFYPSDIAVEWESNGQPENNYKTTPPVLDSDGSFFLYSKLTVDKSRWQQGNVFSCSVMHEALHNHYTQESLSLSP
light: B1 light
notes: Substitution in both H chains; position in EU numbering; also called T335D homodimerized antibody
B3: GpH7-B3 variant Y300_19Q/GpL16-k0 (Ho Ab) (antibody, human IgG1, kappa)
heavy: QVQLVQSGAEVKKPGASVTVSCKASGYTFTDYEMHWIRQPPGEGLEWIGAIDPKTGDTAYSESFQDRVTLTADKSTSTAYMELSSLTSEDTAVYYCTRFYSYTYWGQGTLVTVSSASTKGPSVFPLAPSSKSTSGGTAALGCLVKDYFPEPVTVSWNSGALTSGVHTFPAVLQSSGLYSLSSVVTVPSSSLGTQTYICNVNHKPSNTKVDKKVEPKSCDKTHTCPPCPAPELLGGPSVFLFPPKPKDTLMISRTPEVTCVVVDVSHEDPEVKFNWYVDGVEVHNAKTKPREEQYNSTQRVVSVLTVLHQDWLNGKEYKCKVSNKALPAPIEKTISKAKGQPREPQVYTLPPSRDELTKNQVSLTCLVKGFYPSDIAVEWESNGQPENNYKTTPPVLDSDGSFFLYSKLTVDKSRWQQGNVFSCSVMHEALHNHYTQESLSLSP
light: B1 light
notes: Substitution in both H chains; position in EU numbering; also called Y300Q homodimerized antibody
B4: GpH7-A5/GpH7-B3 variant L328_03V/GpL16-k0 (He Ab) (antibody, human IgG1, kappa)
heavy 1: not shown
heavy 2: not shown
light: B1 light
notes: Substitution in one H chain only; position in EU numbering; also called L328V heterodimerized antibody
B5: GpH7-A5/GpH7-B3 variant K334_15Y/GpL16-k0 (He Ab) (antibody, human IgG1, kappa)
heavy 1: not shown
heavy 2: not shown
light: B1 light
notes: Substitution in one H chain only; position in EU numbering; also called K334Y heterodimerized antibody
B6: GpH7-A5/GpH7-B3 variant K334_16H/GpL16-k0 (He Ab) (antibody, human IgG1, kappa)
heavy 1: not shown
heavy 2: not shown
light: B1 light
notes: Substitution in one H chain only; position in EU numbering; also called K334H heterodimerized antibody
B7: GpH7-A5/GpH7-B3 variant K334_18N/GpL16-k0 (He Ab) (antibody, human IgG1, kappa)
heavy 1: not shown
heavy 2: not shown
light: B1 light
notes: Substitution in one H chain only; position in EU numbering; also called K334N heterodimerized antibody
B8: GpH7-A5/GpH7-B3 variant K334_19Q/GpL16-k0 (He Ab) (antibody, human IgG1, kappa)
heavy 1: not shown
heavy 2: not shown
light: B1 light
notes: Substitution in one H chain only; position in EU numbering; also called K334Q heterodimerized antibody
B9: GpH7-A5/GpH7-B3 variant L328_04F/GpL16-k0 (He Ab) (antibody, human IgG1, kappa)
heavy 1: not shown
heavy 2: not shown
light: B1 light
notes: Substitution in one H chain only; position in EU numbering; also called L328F heterodimerized antibody
B10: GpH7-A5/GpH7-B3 variant L328_06M/GpL16-k0 (He Ab) (antibody, human IgG1, kappa)
heavy 1: not shown
heavy 2: not shown
light: B1 light
notes: Substitution in one H chain only; position in EU numbering; also called L328M heterodimerized antibody
B11: GpH7-A5/GpH7-B3 variant L328_07I/GpL16-k0 (He Ab) (antibody, human IgG1, kappa)
heavy 1: not shown
heavy 2: not shown
light: B1 light
notes: Substitution in one H chain only; position in EU numbering; also called L328I heterodimerized antibody
B12: GpH7-A5/GpH7-B3 variant L328_14T/GpL16-k0 (He Ab) (antibody, human IgG1, kappa)
heavy 1: not shown
heavy 2: not shown
light: B1 light
notes: Substitution in one H chain only; position in EU numbering; also called L328T heterodimerized antibody
B13: GpH7-A5/GpH7-B3 variant L328_15Y/GpL16-k0 (He Ab) (antibody, human IgG1, kappa)
heavy 1: not shown
heavy 2: not shown
light: B1 light
notes: Substitution in one H chain only; position in EU numbering; also called L328Y heterodimerized antibody
B14: GpH7-A5/GpH7-B3 variant L328_19Q/GpL16-k0 (He Ab) (antibody, human IgG1, kappa)
heavy 1: not shown
heavy 2: not shown
light: B1 light
notes: Substitution in one H chain only; position in EU numbering; also called L328Q heterodimerized antibody
B15: GpH7-A5/GpH7-B3 variant P238_08L/GpL16-k0 (He Ab) (antibody, human IgG1, kappa)
heavy 1: not shown
heavy 2: not shown
light: B1 light
notes: Substitution in one H chain only; position in EU numbering; also called P238L heterodimerized antibody
B16: GpH7-A5/GpH7-B3 variant P271_01G/GpL16-k0 (He Ab) (antibody, human IgG1, kappa)
heavy 1: not shown
heavy 2: not shown
light: B1 light
notes: Substitution in one H chain only; position in EU numbering; also called P271G heterodimerized antibody
B17: GpH7-A5/GpH7-B3 variant P271_08L/GpL16-k0 (He Ab) (antibody, human IgG1, kappa)
heavy 1: not shown
heavy 2: not shown
light: B1 light
notes: Substitution in one H chain only; position in EU numbering; also called P271L heterodimerized antibody
B18: GpH7-A5/GpH7-B3 variant P331_04F/GpL16-k0 (He Ab) (antibody, human IgG1, kappa)
heavy 1: not shown
heavy 2: not shown
light: B1 light
notes: Substitution in one H chain only; position in EU numbering; also called P331F heterodimerized antibody
B19: GpH7-A5/GpH7-B3 variant S239_01G/GpL16-k0 (He Ab) (antibody, human IgG1, kappa)
heavy 1: not shown
heavy 2: not shown
light: B1 light
notes: Substitution in one H chain only; position in EU numbering; also called S239G heterodimerized antibody
B20: GpH7-A5/GpH7-B3 variant S239_07I/GpL16-k0 (He Ab) (antibody, human IgG1, kappa)
heavy 1: not shown
heavy 2: not shown
light: B1 light
notes: Substitution in one H chain only; position in EU numbering; also called S239I heterodimerized antibody
B21: GpH7-A5/GpH7-B3 variant S239_08L/GpL16-k0 (He Ab) (antibody, human IgG1, kappa)
heavy 1: not shown
heavy 2: not shown
light: B1 light
notes: Substitution in one H chain only; position in EU numbering; also called S239L heterodimerized antibody
B22: GpH7-A5/GpH7-B3 variant S239_09D/GpL16-k0 (He Ab) (antibody, human IgG1, kappa)
heavy 1: not shown
heavy 2: not shown
light: B1 light
notes: Substitution in one H chain only; position in EU numbering; also called S239D heterodimerized antibody
B23: GpH7-A5/GpH7-B3 variant S239_18N/GpL16-k0 (He Ab) (antibody, human IgG1, kappa)
heavy 1: not shown
heavy 2: not shown
light: B1 light
notes: Substitution in one H chain only; position in EU numbering; also called S239N heterodimerized antibody
B24: GpH7-A5/GpH7-B3 variant S267_02A/GpL16-k0 (He Ab) (antibody, human IgG1, kappa)
heavy 1: not shown
heavy 2: not shown
light: B1 light
notes: Substitution in one H chain only; position in EU numbering; also called S267A heterodimerized antibody
B25: GpH7-A5/GpH7-B3 variant S267_03V/GpL16-k0 (He Ab) (antibody, human IgG1, kappa)
heavy 1: not shown
heavy 2: not shown
light: B1 light
notes: Substitution in one H chain only; position in EU numbering; also called S267V heterodimerized antibody
B26: GpH7-A5/GpH7-B3 variant S267_07I/GpL16-k0 (He Ab) (antibody, human IgG1, kappa)
heavy 1: not shown
heavy 2: not shown
light: B1 light
notes: Substitution in one H chain only; position in EU numbering; also called S267I heterodimerized antibody
B27: GpH7-A5/GpH7-B3 variant S267_08L/GpL16-k0 (He Ab) (antibody, human IgG1, kappa)
heavy 1: not shown
heavy 2: not shown
light: B1 light
notes: Substitution in one H chain only; position in EU numbering; also called S267L heterodimerized antibody
B28: GpH7-A5/GpH7-B3 variant S267_09D/GpL16-k0 (He Ab) (antibody, human IgG1, kappa)
heavy 1: not shown
heavy 2: not shown
light: B1 light
notes: Substitution in one H chain only; position in EU numbering; also called S267D heterodimerized antibody
B29: GpH7-A5/GpH7-B3 variant S267_10E/GpL16-k0 (He Ab) (antibody, human IgG1, kappa)
heavy 1: not shown
heavy 2: not shown
light: B1 light
notes: Substitution in one H chain only; position in EU numbering; also called S267E heterodimerized antibody
B30: GpH7-A5/GpH7-B3 variant S267_14T/GpL16-k0 (He Ab) (antibody, human IgG1, kappa)
heavy 1: not shown
heavy 2: not shown
light: B1 light
notes: Substitution in one H chain only; position in EU numbering; also called S267T heterodimerized antibody
B31: GpH7-A5/GpH7-B3 variant S298_08L/GpL16-k0 (He Ab) (antibody, human IgG1, kappa)
heavy 1: not shown
heavy 2: not shown
light: B1 light
notes: Substitution in one H chain only; position in EU numbering; also called S298L heterodimerized antibody
B32: GpH7-A5/GpH7-B3 variant S337_09D/GpL16-k0 (He Ab) (antibody, human IgG1, kappa)
heavy 1: not shown
heavy 2: not shown
light: B1 light
notes: Substitution in one H chain only; position in EU numbering; also called S337D heterodimerized antibody
B33: GpH7-A5/GpH7-B3 variant S337_10E/GpL16-k0 (He Ab) (antibody, human IgG1, kappa)
heavy 1: not shown
heavy 2: not shown
light: B1 light
notes: Substitution in one H chain only; position in EU numbering; also called S337E heterodimerized antibody
B34: GpH7-A5/GpH7-B3 variant S337_14T/GpL16-k0 (He Ab) (antibody, human IgG1, kappa)
heavy 1: not shown
heavy 2: not shown
light: B1 light
notes: Substitution in one H chain only; position in EU numbering; also called S337T heterodimerized antibody
B35: GpH7-A5/GpH7-B3 variant T335_04F/GpL16-k0 (He Ab) (antibody, human IgG1, kappa)
heavy 1: not shown
heavy 2: not shown
light: B1 light
notes: Substitution in one H chain only; position in EU numbering; also called T335F heterodimerized antibody
B36: GpH7-A5/GpH7-B3 variant T335_08L/GpL16-k0 (He Ab) (antibody, human IgG1, kappa)
heavy 1: not shown
heavy 2: not shown
light: B1 light
notes: Substitution in one H chain only; position in EU numbering; also called T335L heterodimerized antibody
B37: GpH7-A5/GpH7-B3 variant T335_09D/GpL16-k0 (He Ab) (antibody, human IgG1, kappa)
heavy 1: not shown
heavy 2: not shown
light: B1 light
notes: Substitution in one H chain only; position in EU numbering; also called T335D heterodimerized antibody
B38: GpH7-A5/GpH7-B3 variant Y300_19Q/GpL16-k0 (He Ab) (antibody, human IgG1, kappa)
heavy 1: not shown
heavy 2: not shown
light: B1 light
notes: Substitution in one H chain only; position in EU numbering; also called Y300Q heterodimerized antibody

Target: T1, FcγRIIb extracellular domain with …
Assay: SPR (Biacore), antibody captured on antigen-peptide chip, FcgRIIb as analyte; binding relative to GpH7-B3/GpL16-k0 (HoCon Ab) = 100

Point of comparison: B3, Ho/Con_2b 124 % of control. Against it:
- B1 — lower, 106 % of control
- B2 — lower, 116 % of control

Target: T1, FcγRIIb extracellular domain with …
Assay: SPR (Biacore), antibody captured on antigen-peptide chip, FcgRIIb as analyte; binding relative to GpH7-A5/GpH7-B3/GpL16-k0 (HeCon Ab) = 100

Point of comparison: B8, He/Con_2b 109 % of control. Against it:
- B4 — higher, 126 % of control
- B5 — the same, 109 % of control
- B6 — higher, 113 % of control
- B7 — higher, 115 % of control
- B9 — higher, 219 % of control
- B10 — higher, 142 % of control
- B11 — higher, 160 % of control
- B12 — higher, 141 % of control
- B13 — higher, 193 % of control
- B14 — lower, 105 % of control
- B15 — higher, 204 % of control
- B16 — higher, 193 % of control
- B17 — lower, 103 % of control
- B18 — higher, 110 % of control
- B19 — higher, 144 % of control
- B20 — lower, 107 % of control
- B21 — higher, 140 % of control
- B22 — higher, 206 % of control
- B23 — higher, 119 % of control
- B24 — higher, 243 % of control
- B25 — higher, 192 % of control
- B26 — higher, 192 % of control
- B27 — the same, 109 % of control
- B28 — higher, 310 % of control
- B29 — higher, 379 % of control
- B30 — lower, 104 % of control
- B31 — lower, 108 % of control
- B32 — higher, 114 % of control
- B33 — lower, 107 % of control
- B34 — lower, 105 % of control
- B35 — lower, 103 % of control
- B36 — lower, 104 % of control
- B37 — lower, 108 % of control
- B38 — lower, 108 % of control
